{
  "source": "paper PMC3235116",
  "key": {"P69949 [1]": {"test_system": "P69949", "assay": "AUC; F137L/E363G enolase incubated at pH 4.5 for one hour and dialysed overnight against SPR binding buffer; soluble fraction; octamer to monomers"}, "P69949 [2]": {"test_system": "P69949", "assay": "AUC; each his-tagged enolase alone in SPR binding buffer (no Mg2+, with EDTA, pH 7.4); octamer to monomers"}, "[3]": {"target": "canine plasminogen (canine)", "assay": "co-sedimentation; dPgn made to precipitate with reductant (0.2 M DTT) in the presence of native soluble Str enolase; centrifuged, pellets and supernates on SDS-PAGE; initial dPgn:enolase monomer 1:1 or 1:3"}, "[4]": {"target": "canine plasminogen (canine)", "assay": "ITC; Str enolase brought to pH 9 (precipitated), dialysed back to pH 6.9, 30% activity left; enolase titrated into dPgn, close to 20°C"}, "[5]": {"target": "canine plasminogen (canine)", "assay": "SPR; dPgn amine-coupled at pH 4.5 to CM4 chip (340 RU); titration with F137L/E363G Str enolase 0-500 nM (2-fold series), 25°C"}, "[6]": {"target": "fluorescently labeled, catalytically inactive derivative of human plasminogen (5'IAF-Pg S741C) (human)", "assay": "fluorescence polarisation; Str enolase first brought to pH 4.5, then diluted into phosphate buffer pH 6.7 (non-native enolase); labelled hPgn 140 nM, Str enolase 0.057 mM, 20°C"}, "[7]": {"target": "Streptococcus pyogenes enolase F137L/E363G with an N-terminal hexa-histidine tag (Streptococcus pyogenes) (UniProt P69949)", "assay": "AUC; sedimentation velocity of each purified enolase alone, native (data not shown); octamer"}, "[8]": {"target": "Streptococcus pyogenes enolase F137L/E363G with an N-terminal hexa-histidine tag (Streptococcus pyogenes) (UniProt P69949)", "assay": "AUC; F137L/E363G enolase incubated at pH 4.5 for one hour and dialysed overnight against SPR binding buffer; soluble fraction; octamer to monomers"}, "[9]": {"target": "Streptococcus pyogenes enolase F137L/E363G with an N-terminal hexa-histidine tag (Streptococcus pyogenes) (UniProt P69949)", "assay": "AUC; each his-tagged enolase alone in SPR binding buffer (no Mg2+, with EDTA, pH 7.4); octamer to monomers"}, "[10]": {"target": "Streptococcus pyogenes enolase F137L/E363G with an N-terminal hexa-histidine tag (Streptococcus pyogenes) (UniProt P69949)", "assay": "ITC; Str enolase brought to pH 4.5 (precipitated), dialysed to pH 6.9, dissolved in 27% urea, dialysed again at pH 6.9, about 30% specific activity left; enolase titrated with dPgn, close to 20°C"}, "[11]": {"target": "Streptococcus pyogenes enolase F137L/E363G with an N-terminal hexa-histidine tag (Streptococcus pyogenes) (UniProt P69949)", "assay": "co-sedimentation; Str enolase (300 nM) adsorbed to azolectin (phosphatidyl choline) micelles, dPgn 1000 nM, 10 mM potassium phosphate, 100 mM NaCl, 4°C three days, 20 000 rpm 2 h, SDS-PAGE of pellets and supernates"}, "[12]": {"target": "Streptococcus pyogenes enolase F137L/E363G with an N-terminal hexa-histidine tag (Streptococcus pyogenes) (UniProt P69949)", "assay": "SPR; N-terminal His6 F137L/E363G Str enolase captured at neutral pH on Ni-NTA chip (~150 RU); single-cycle titration 15-2000 nM"}, "[13]": {"target": "wild type Streptococcus pyogenes enolase with a C-terminal deca-histidine tag (Streptococcus pyogenes) (UniProt P69949)", "assay": "AUC; sedimentation velocity of each purified enolase alone, native (data not shown); octamer"}, "[14]": {"target": "wild type Streptococcus pyogenes enolase with a C-terminal deca-histidine tag (Streptococcus pyogenes) (UniProt P69949)", "assay": "AUC; each his-tagged enolase alone in SPR binding buffer (no Mg2+, with EDTA, pH 7.4); octamer to monomers"}, "[15]": {"target": "wild type Streptococcus pyogenes enolase with an N-terminal hexa-histidine tag (Streptococcus pyogenes) (UniProt P69949)", "assay": "AUC; sedimentation velocity of each purified enolase alone, native (data not shown); octamer"}, "[16]": {"target": "wild type Streptococcus pyogenes enolase with an N-terminal hexa-histidine tag (Streptococcus pyogenes) (UniProt P69949)", "assay": "AUC; each his-tagged enolase alone in SPR binding buffer (no Mg2+, with EDTA, pH 7.4); octamer to monomers"}, "[17]": {"target": "wild type Streptococcus pyogenes enolase with no tag (Streptococcus pyogenes) (UniProt P69949)", "assay": "AUC; sedimentation velocity of each purified enolase alone, native (data not shown); octamer"}},
  "note": "Several values for one entry are separate records, joined by “and”; a condition that tells them apart may be missing. Equal entries are not always repeated.",
  "data": [
    {"substance": "Streptococcus pyogenes enolase F137L/E363G with an N-terminal hexa-histidine tag", "values": [
      {"measurement": "% monomeric", "setting": "P69949 [1]", "result": 75, "unit": "% was monomeric"},
      {"measurement": "% monomeric", "setting": "P69949 [2]", "result": 36, "unit": "%"}
    ]},
    {"substance": "Streptococcus pyogenes enolase F137L/E363G with an N-terminal hexa-histidine tag (from UniProt P69949 1-435) (enzyme)", "values": [
      {"measurement": "% of the precipitated protein that was Str enolase (initial ratio 1:1)", "setting": "[3]", "result": 12, "unit": "%"},
      {"measurement": "% of the precipitated protein that was Str enolase (initial ratio 1:3)", "setting": "[3]", "result": 25, "unit": "%"},
      {"measurement": "dPgn:enolase ratio in the pellet (initial ratio 1:1) (dPgn per enolase)", "setting": "[3]", "result": 6},
      {"measurement": "dPgn:enolase ratio in the pellet (initial ratio 1:3) (dPgn per enolase)", "setting": "[3]", "result": 3},
      {"measurement": "stoichiometry N (sites per enolase monomer)", "setting": "[4]", "result": 0.18},
      {"measurement": "half saturation of all the association phases", "setting": "[5]", "result": 50, "unit": "nM"},
      {"measurement": "P (polarization)", "setting": "[6]", "result": 0.43},
      {"measurement": "% octameric", "setting": "[7]", "result": "> 90", "unit": "%"},
      {"measurement": "stoichiometry N", "setting": "[7]", "result": 8},
      {"measurement": "% octameric", "setting": "[8]", "result": 19, "unit": "%"},
      {"measurement": "% octameric", "setting": "[9]", "result": 57, "unit": "%"}
    ]},
    {"substance": "canine plasminogen (natural protein)", "values": [
      {"measurement": "stoichiometry N (dPgn per enolase monomer)", "setting": "[10]", "result": 0.34},
      {"measurement": "amount of dPgn relative to Str enolase that co-sedimented (Str enolase per dPgn (as 1:x))", "setting": "[11]", "result": "1 and 1.2"},
      {"measurement": "stoichiometry N (dPgn per enolase monomer)", "setting": "[12]", "result": 1}
    ]},
    {"substance": "wild type Streptococcus pyogenes enolase with a C-terminal deca-histidine tag", "values": [
      {"measurement": "% monomeric", "setting": "P69949 [2]", "result": 18, "unit": "%"}
    ]},
    {"substance": "wild type Streptococcus pyogenes enolase with a C-terminal deca-histidine tag (from UniProt P69949 1-435) (enzyme)", "values": [
      {"measurement": "% octameric", "setting": "[13]", "result": "> 90", "unit": "%"},
      {"measurement": "stoichiometry N", "setting": "[13]", "result": 8},
      {"measurement": "% octameric", "setting": "[14]", "result": 68, "unit": "%"}
    ]},
    {"substance": "wild type Streptococcus pyogenes enolase with an N-terminal hexa-histidine tag", "values": [
      {"measurement": "% monomeric", "setting": "P69949 [2]", "result": 5, "unit": "%"}
    ]},
    {"substance": "wild type Streptococcus pyogenes enolase with an N-terminal hexa-histidine tag (from UniProt P69949 1-435) (enzyme)", "values": [
      {"measurement": "% octameric", "setting": "[15]", "result": "> 90", "unit": "%"},
      {"measurement": "stoichiometry N", "setting": "[15]", "result": 8},
      {"measurement": "% octameric", "setting": "[16]", "result": 88, "unit": "%"}
    ]},
    {"substance": "wild type Streptococcus pyogenes enolase with no tag (from UniProt P69949 1-435) (enzyme)", "values": [
      {"measurement": "% octameric", "setting": "[17]", "result": "> 90", "unit": "%"},
      {"measurement": "stoichiometry N", "setting": "[17]", "result": 8}
    ]}
  ]
}
